Data: patent US20040022777A1, “Fragments and antagonists of heat shock protein 60” (priority 1999, published 2004)

Columns and labels:
Type in all cases: cell-based, mouse
[1] = tested on: bone marrow-derived macrophages of C57BL/6 and C3H/HeN mice; assay: NO (nitrite) production by bone marrow-derived macrophages with wild-type Tlr4 (Griess reaction); conditions: 24 h
[2] = tested on: bone marrow-derived macrophages of C3H/HeJ mice (mutant Toll-like receptor 4); assay: NO (nitrite) production by bone marrow-derived macrophages with mutant Tlr4 (Griess reaction)
[3] = tested on: bone marrow-derived macrophages of C57BL/6 and C3H/HeN mice; assay: TNFα production by bone marrow-derived macrophages with wild-type Tlr4 (sandwich ELISA)
[4] = tested on: bone marrow-derived macrophages of C3H/HeJ mice (mutant Toll-like receptor 4); assay: TNFα production by bone marrow-derived macrophages with mutant Tlr4 (sandwich ELISA)

B1: hsp60: Recombinant human hsp60 obtained from StressGen Biotechnologies (protein)
chain: AKDVKFGADARALMLQGVDLLADAVAVTMGPKGRTVIIEQSWGSPKVTKDGVTVAKSIDLKDKYKNIGAKLVQDVANNTNEEAGDGTTTATVLARSIAKEGFEKISKGANPVEIRRGVMLAVDAVIAELKKQSKPVTTPEEIAQVATISANGDKEIGNIISDAMKKVGRKGVITVKDGKTLNDELEIIEGMKFDRGYISPYFINTSKGQKCEFQDAYVLLSEKKISSIQSIVPALEIANAHRKPLVIIAEDVDGEALSTLVLNRLKVGLQVVAVKAPGFGDNRKNQLKDMAIATGGAVFGEEGLTLNLEDVQPHDLGKVGEVIVTKDDAMLLKGKGDKAQIEKRIQEIIEQLDVTTSEYEKEKLNERLAKLSDGVAVLKVGGTSDVEVNEKKDRVTDALNATRAAVEEGIVLGGGCALLRCIPALDSLTPANEDQKIGIEIIKRTLKIPAMTIAKNAGVEGSLIVEKIMQSSSEVGYDAMAGDFVNMVEKGIIDPTKVVRTALLDAAGVASLLTTAEVVVTEIPKEEKDPGMGAMGGMGGGMGGGMF
hsp60 concentration required for eliciting NO [1]: 3 µg/mL | nitrite levels on increasing the hsp60 concentration tenfold ([1]; C3H/HeN macrophages): about five times higher nitrite levels | NO production ([1]; C57BL/6 and C3H/HeN macrophages, LPS 10 ng/ml, hsp60 10 μg/ml): same outcome | NO production ([2]; C3H/HeJ (Tlr4 defective) macrophages, LPS 10 ng/ml, hsp60 10 μg/ml, 24 h): complete lack of a nitric oxide response | NO production, time course ([2]; C3H/HeJ macrophages, 10 μg/ml hsp60, up to 72 h): no indication of NO production | NO response on increasing the hsp60 concentration tenfold ([2]; Tlr4 defective macrophages, 24 h): completely refractory | time of peak levels of secreted TNFα ([3]; C3H/HeN macrophages, 10 μg/ml hsp60): 6 to 12 h | TNFα secretion ([3]; C57BL/6 and C3H/HeN macrophages, LPS 10 ng/ml, hsp60 10 μg/ml, 6 h): rapid secretion of large amounts of TNFα | TNFα response ([4]; C3H/HeJ macrophages, LPS 10 ng/ml, hsp60 10 μg/ml, oligonucleotides 30 μg/ml, 6 h): no response | TNFα response, dose dependence ([4]; C3H/HeJ macrophages, even at ten times higher hsp60 levels, 6 h): no such response | TNFα production, time course ([4]; Tlr4 defective macrophages, 10 μg/ml hsp60, observation period of 72 h): absent
